Assay [1] deals with human C-C chemokine receptor type 7 (human) (UniProt P32248).
Assay [2] deals with CCR7-LgBiT (human) (UniProt P32248).
Assay [3] deals with human C-C chemokine receptor type 7 (human) (UniProt P32248). The source holds these as a separate data set.

With “C-C chemokine ligand 19 (from UniProt Q99731 22-98)”, the cellular electrical impedance of HEK293 cells stably expressing CCR7, AUC[0–120], pEC50 in assay [1] is 8.2 pEC50 (M). In assay [2], the ligand-induced β-arrestin2 recruitment to CCR7 (NanoBiT, CCR7-LgBiT with SmBiT-β-arrestin2 in HEK293 cells), pEC50 is 7.61 pEC50 (M). Also, in assay [3], the G protein activation, Gαi-1 (nanoBRET, Gαi1-91-NLuc with Gγ2-LSS-mKATE2) in HEK293 cells stably expressing CCR7, pEC50 is 8.64 pEC50 (M); the G protein activation, Gαi-2 (nanoBRET, Gαi2-91-NLuc with Gγ2-LSS-mKATE2) in HEK293 cells stably expressing CCR7, pEC50 is 9.02 pEC50 (M); the G protein activation, Gαi-3 (nanoBRET, Gαi3-91-NLuc with Gγ2-LSS-mKATE2) in HEK293 cells stably expressing CCR7, pEC50 was 9.61 pEC50 (M); the inhibition of forskolin-induced cAMP production (GloSensor) in HEK293 cells stably expressing CCR7, pEC50 was 7.83 pEC50 (M). Also, the ligand-induced CCR7 internalisation (flow cytometry of surface CCR7, 30 min at 37 °C) in HEK293 cells stably expressing CCR7, pEC50 in assay [3] is 7.7 pEC50 (M).
Turning to “C-C chemokine ligand 21 (from UniProt O00585 24-134)”, the cellular electrical impedance of HEK293 cells stably expressing CCR7, AUC[0–120], pEC50 in assay [1] was 6.93 pEC50 (M). In addition, the ligand-induced β-arrestin2 recruitment to CCR7 (NanoBiT, CCR7-LgBiT with SmBiT-β-arrestin2 in HEK293 cells), pEC50 in assay [2] is 6.48 pEC50 (M). For the same substance, in assay [3], the G protein activation, Gαi-1 (nanoBRET, Gαi1-91-NLuc with Gγ2-LSS-mKATE2) in HEK293 cells stably expressing CCR7, pEC50 was 8.44 pEC50 (M); the G protein activation, Gαi-2 (nanoBRET, Gαi2-91-NLuc with Gγ2-LSS-mKATE2) in HEK293 cells stably expressing CCR7, pEC50 is 8.72 pEC50 (M); the G protein activation, Gαi-3 (nanoBRET, Gαi3-91-NLuc with Gγ2-LSS-mKATE2) in HEK293 cells stably expressing CCR7, pEC50 was 9.34 pEC50 (M); the inhibition of forskolin-induced cAMP production (GloSensor) in HEK293 cells stably expressing CCR7, pEC50 was 7.67 pEC50 (M). Further, in assay [3], the ligand-induced CCR7 internalisation (flow cytometry of surface CCR7, 30 min at 37 °C) in HEK293 cells stably expressing CCR7, pEC50 was 6.73 pEC50 (M).

These data come from PMC9408853.
